Key:
[1] = biological target: DNA polymerase beta P242R (rs3136797) (Homo sapiens, UniProt P06746 1-335, P242R); experiment: EMSA; EMSA as described previously (ref 34); buffer, salt, pH and temperature not given in the material
[2] = biological target: DNA polymerase beta WT (242Pro) (Homo sapiens, UniProt P06746 1-335); experiment: as above

B1: 1-bp gapped DNA (dsDNA)
DNA 1: GCCTCGCAGCCGTCCAACCAAC
DNA 2: CAACCTCGATCCAATGCCGTCC
DNA 3: GGACGGCATTGGATCGAGGTTGAGTTGGTTGGACGGCTGCGAGGC
modifications: 5' phosphate on downstream oligo (S8)
- Kd [1]: 5 nM
- Kd [2]: 5 nM

— paper PMC3493456
